T1: human GIP receptor (human, UniProt P48546 22-466)
T1 sequence (looked up): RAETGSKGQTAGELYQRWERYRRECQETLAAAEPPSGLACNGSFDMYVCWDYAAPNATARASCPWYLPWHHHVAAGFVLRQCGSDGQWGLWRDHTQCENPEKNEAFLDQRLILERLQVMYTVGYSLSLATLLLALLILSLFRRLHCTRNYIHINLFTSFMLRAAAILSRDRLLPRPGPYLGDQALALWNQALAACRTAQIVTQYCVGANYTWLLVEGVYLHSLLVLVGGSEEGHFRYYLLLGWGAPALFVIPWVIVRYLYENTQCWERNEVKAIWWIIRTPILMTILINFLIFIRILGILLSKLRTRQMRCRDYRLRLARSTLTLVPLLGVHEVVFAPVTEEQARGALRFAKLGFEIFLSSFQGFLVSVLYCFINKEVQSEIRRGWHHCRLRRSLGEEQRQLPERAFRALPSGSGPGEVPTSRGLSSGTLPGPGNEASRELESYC

T2: human GIP receptor (human) (UniProt P48546)
T2 sequence (looked up): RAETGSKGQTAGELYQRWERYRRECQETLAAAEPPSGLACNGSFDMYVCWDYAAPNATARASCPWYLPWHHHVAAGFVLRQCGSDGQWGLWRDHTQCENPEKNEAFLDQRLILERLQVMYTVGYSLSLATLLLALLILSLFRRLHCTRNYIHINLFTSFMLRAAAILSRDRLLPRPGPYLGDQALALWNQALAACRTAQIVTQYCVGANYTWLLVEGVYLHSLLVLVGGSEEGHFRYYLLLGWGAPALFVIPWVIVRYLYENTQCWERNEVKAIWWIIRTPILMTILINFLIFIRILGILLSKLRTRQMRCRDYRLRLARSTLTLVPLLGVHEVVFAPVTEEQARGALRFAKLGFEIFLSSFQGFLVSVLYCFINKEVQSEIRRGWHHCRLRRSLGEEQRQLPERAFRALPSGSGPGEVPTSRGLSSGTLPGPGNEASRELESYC

T3: human GIP receptor (human, UniProt P48546 22-466)
T3 sequence (looked up): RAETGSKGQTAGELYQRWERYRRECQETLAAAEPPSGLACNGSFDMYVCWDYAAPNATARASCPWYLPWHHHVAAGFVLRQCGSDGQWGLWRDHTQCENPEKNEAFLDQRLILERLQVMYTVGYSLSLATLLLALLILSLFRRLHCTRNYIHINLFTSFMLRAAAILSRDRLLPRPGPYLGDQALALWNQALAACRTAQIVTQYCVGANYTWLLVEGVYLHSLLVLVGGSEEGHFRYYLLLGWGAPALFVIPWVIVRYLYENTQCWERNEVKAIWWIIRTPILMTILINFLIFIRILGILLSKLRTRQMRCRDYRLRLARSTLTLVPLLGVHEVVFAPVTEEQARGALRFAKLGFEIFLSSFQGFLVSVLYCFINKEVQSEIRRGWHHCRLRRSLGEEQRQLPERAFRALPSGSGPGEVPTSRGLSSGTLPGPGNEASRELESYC


Experiments:
Experiment in all cases: cell-based or functional assay
human GLP-1 receptor = human GLP-1 receptor (human, UniProt P43220 24-463)
human glucagon receptor [1] = target: human glucagon receptor (human, UniProt P47871 26-477)
Target sequence in this assay (P47871 26-477): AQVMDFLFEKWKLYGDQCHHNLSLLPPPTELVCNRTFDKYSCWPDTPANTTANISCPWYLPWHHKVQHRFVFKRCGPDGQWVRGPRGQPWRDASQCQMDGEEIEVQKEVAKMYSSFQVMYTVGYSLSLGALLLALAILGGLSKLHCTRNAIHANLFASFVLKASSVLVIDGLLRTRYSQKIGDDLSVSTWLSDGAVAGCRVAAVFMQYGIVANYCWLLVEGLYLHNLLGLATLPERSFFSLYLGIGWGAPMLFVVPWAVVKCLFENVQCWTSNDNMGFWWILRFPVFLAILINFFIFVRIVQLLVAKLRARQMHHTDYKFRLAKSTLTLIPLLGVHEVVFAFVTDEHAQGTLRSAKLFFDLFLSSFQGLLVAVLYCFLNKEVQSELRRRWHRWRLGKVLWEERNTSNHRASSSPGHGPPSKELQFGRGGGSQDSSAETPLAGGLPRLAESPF

human GIP receptor [2] = target: T1, human GIP receptor
[3] = target: T2, human GIP receptor (human)
hGLP-1R = hGLP-1R (Homo sapiens, UniProt P43220)
[4] = target: human glucagon receptor (human) (UniProt P47871)
human glucagon receptor [5] = target: human glucagon receptor (human, UniProt P47871 26-477); remark: listed apart in the source
human GIP receptor [6] = target: T3, human GIP receptor; remark: listed apart in the source

Row | Binder | cAMP EC50 (1.0% HSA) (human GLP-1 receptor) | cAMP EC50 (1.0% HSA) (human glucagon receptor [1]) | cAMP EC50 (1.0% HSA) (human GIP receptor [2]) | cAMP Emax (1.0% HSA) (human GIP receptor [2]) | cAMP EC50 [3] | cAMP Emax [3] | cAMP EC50 (hGLP-1R) | cAMP Emax (hGLP-1R) | cAMP EC50 [4] | cAMP EC50 (1.0% HSA) (human glucagon receptor [5]) | cAMP EC50 (1.0% HSA) (human GIP receptor [6]) | cAMP Emax (1.0% HSA) (human GLP-1 receptor)
1 | YXEGTXTSDXXIXLDXKAQXKFIXXLIEGGPSSGAPPPS (Y-Aib-EGT-αMeF(2F)-TSD-4Pal-Aib-I-αMeL-LD-Orn-K((2-[2-(2-Amino-ethoxy)-ethoxy]-acetyl)-(γ-Glu)-CO-(CH2)10-CH3)AQ-Aib-K((2-[2-(2-Amino-ethoxy)-ethoxy]-acetyl)-(γ-Glu)-CO-(CH2)10-CH3)FI-(D-Glu)-αMeY-LIEGGPSSGAPPPS-NH2) [Example 426] | 29.7 nM | > 9950 nM | 3.88 nM | 91.2% | 0.0191 nM | 93.3% | 0.206 nM | 97.2% | > 9950 nM |  |  | 
2 | YXEGTXTSDXSIXLDXKAQXEFIXXLIEGGKSSGAPPPS (Aib2, αMeF(2F)6, 1Nal10, αMeL13, Orn16, Aib20, D-Glu24, αMeY25; acylated K17, K31 (groups as in name); C-terminal amide) |  |  |  |  |  |  |  |  |  | > 9950 nM | 6.75 nM | 
3 | YXEGTXTSDXXIXLDXKAQXKXIXXLIEGGPSSGAPPPS (Y-Aib-EGT-αMeF(2F)-TSD-4Pal-Aib-I-αMeL-LD-Orn-K((2-[2-(2-Amino-ethoxy)-ethoxy]-acetyl)3-(γ-Glu)-CO-(CH2)10-CH3)AQ-Aib-K((2-[2-(2-Amino-ethoxy)-ethoxy]-acetyl)3-(γ-Glu)-CO-(CH2)10-CH3)-αMeF-I-(D-Glu)-αMeY-LIEGGPSSGAPPPS-NH2) [Example 437] | 9.65 nM | > 9950 nM | 0.461 nM | 96.5% | 0.0146 nM | 94.8% | 0.249 nM | 89.2% | > 9950 nM |  |  | 91.2%
4 | YXEGTXTSDKXIXLDXKAQXEXIXXLIEGGPSSGAPPPS (Y-Aib-EGT-αMeF(2F)-TSDK((2-[2-(2-Amino-ethoxy)-ethoxy]-acetyl)2-(γ-Glu)-CO-(CH2)10-CH3)-Aib-I-αMeL-LD-Orn-K((2-[2-(2-Amino-ethoxy)-ethoxy]-acetyl)2-(γ-Glu)-CO-(CH2)10-CH3)AQ-Aib-E-αMeF-I-(D-Glu)-αMeY-LIEGGPSSGAPPPS-NH2) [Example 429] | 17.3 nM | > 9950 nM | 1.03 nM | 93.3% | 0.00799 nM | 108% | 0.116 nM | 116% | > 9950 nM |  |  | 
5 | YXEGTXTSDXSIXLDXIAQXKFIXXLIEGGKSSGAPPPS (Aib2, αMeF(2F)6, 4Pal10, αMeL13, Orn16, Aib20, D-Glu24, αMeY25; acylated K21, K31 (groups as in name); C-terminal amide) [Y-Aib-EGT-αMeF(2F)-TSD-4Pal-SI-αMeL-LD-Orn-IAQ-Aib-K((2-[2-(2-Amino-ethoxy)-ethoxy]-acetyl)2-CO-(CH2)12-CO2H)FI-(D-Glu)-αMeY-LIEGGK((2-[2-(2-Amino-ethoxy)-ethox …, listing 1 of 2 here] |  |  |  |  |  |  |  |  |  | > 9950 nM | 0.771 nM | 
6 | YXEGTXTSDXSIXLDXKAQXEXIXXLIEGGKSSGAPPPS (Aib2, αMeF6, 4Pal10, αMeL13, Orn16, Aib20, αMeF22, D-Glu24, αMeY25; acylated K17, K31 (groups as in name); C-terminal amide) [Y-Aib-EGT-αMeF-TSD-4Pal-SI-αMeL-LD-Orn-K((2-[2-(2-Amino-ethoxy)-ethoxy]-acetyl)2-(γ-Glu)-CO-(CH2)12-CO2H)AQ-Aib-E-αMeF-I-(D-Glu)-αMeY-LIEGGK((2-[2-(2-Amino-etho …, listing 1 of 2 here] |  |  |  |  |  |  |  |  |  | > 9950 nM | 0.777 nM | 
7 | YXEGTXTSDXXIXLDXKAQXKXIXXLIEGGPSSGAPPPS (not fully specified; Y-Aib-EGT-αMeF(2F)-TSD-4Pal-Aib-I-αMeL-LD-Orn-K((2-[2-(2-Amino-ethoxy)-ethoxy]-acetyl)2-(γ Glu)-CO-(CH2)10H3)AQ-Aib-K((2-[2-(2-Amino-ethoxy)-ethoxy]-acetyl)2-(γGlu)-CO-(CH2)10C3)-αMeFI-(D-Glu)-αMeY-LIEGGPSSGAPPPS-NH2) [Example 430] | 26.8 nM | > 9950 nM | 1.09 nM | 91.5% | 0.0175 nM | 107% | 0.342 nM | 93.1% | > 9950 nM |  |  | 88.5%
8 | YXEGTXTSDXSIXLDXIAQXKFIXXLIEGGKSSGAPPPS (Aib2, αMeF(2F)6, 4Pal10, αMeL13, Orn16, Aib20, D-Glu24, αMeY25; acylated K21, K31 (groups as in name); C-terminal amide) [Y-Aib-EGT-αMeF(2F)-TSD-4Pal-SI-αMeL-LD-Orn-IAQ-Aib-K((2-[2-(2-Amino-ethoxy)-ethoxy]-acetyl)2-(γ-Glu)-CO-(CH2)12-CO2H)FI-(D-Glu)-αMeY-LIEGGK((2-[2-(2-Amino-ethox …, listing 2 of 2 here] |  |  |  |  |  |  |  |  |  | > 9950 nM | 2.19 nM | 
9 | YXEGTXTSDXXIXLDXQAQXKFIXXLIKGGPSSGAPPPS (Y-Aib-EGT-αMeF(2F)-TSD-4Pal-Aib-I-αMeL-LD-Orn-QAQ-Aib-K((2-[2-(2-Amino-ethoxy)-ethoxy]-acetyl)2-(γ-Glu)-CO-(CH2)12-CO2H)FI-(D-Glu)-αMeY-LIK((2-[2-(2-Amino-ethoxy)-ethoxy]-acetyl)2-(γ-Glu)-CO-(CH2)12-CO2H)GGPSSGAPPPS-NH2) [Example 488] | 13 nM | > 9950 nM | 0.718 nM | 85.5% | 0.0115 nM | 104% | 0.207 nM | 113% | > 10100 nM |  |  | 
10 | YXEGTXTSDXXIXLDXKAQXEXIXXLIKGGPSSGAPPPS (Y-Aib-EGT-αMeF(2F)-TSD-4Pal-Aib-I-αMeL-LD-Orn-K((2-[2-(2-Amino-ethoxy)-ethoxy]-acetyl)3-(γ-Glu)-CO-(CH2)10-CH3)AQ-Aib-E-αMeF-I-(D-Glu)-αMeY-LIK((2-[2-(2-Amino-ethoxy)-ethoxy]-acetyl)3-(γ-Glu)-CO-(CH2)10-CH3)GGPSSGAPPPS-NH2) [Example 438] | 28 nM | > 9950 nM | 0.592 nM | 90.8% | 0.0157 nM | 98.9% | 0.471 nM | 88.5% | > 9950 nM |  |  | 88.7%
11 | YXEGTXTSDKXIXLDGKAQXEFIXXLIEGGPSSGAPPPS (Y-Aib-EGT-αMeF(2F)-TSDK((2-[2-(2-Amino-ethoxy)-ethoxy]-acetyl)2-(γ-Glu)-CO-(CH2)10-CH3)-Aib-I-αMeL-LDGK((2-[2-(2-Amino-ethoxy)-ethoxy]-acetyl)2-(γ-Glu)-CO-(CH2)10-CH3)AQ-Aib-EFI-(D-Glu)-αMeY-LIEGGPSSGAPPPS-NH2) [Example 445] | 13.1 nM | > 9950 nM | 1.17 nM | 91.4% | 0.00728 nM | 102% | 0.0781 nM | 103% | > 9950 nM |  |  | 100%
12 | YXEGTXTSDKXIXLDXKAQXEXIXXLIEGGPSSGAPPPS (Y-Aib-EGT-αMeF(2F)-TSDK((2-[2-(2-Amino-ethoxy)-ethoxy]-acetyl)3-(γ-Glu)-CO-(CH2)10-CH3)-Aib-I-αMeL-LD-Orn-K((2-[2-(2-Amino-ethoxy)-ethoxy]-acetyl)3-(γ-Glu)-CO-(CH2)10-CH3)AQ-Aib-E-αMeF-I-(D-Glu)-αMeY-LIEGGPSSGAPPPS-NH2) [Example 436] | 4.98 nM | > 9950 nM | 0.241 nM | 96% | 0.00714 nM | 102% | 0.102 nM | 98.9% | > 9950 nM |  |  | 
13 | YXEGTXTSDXSIXLDXKAQXEXIXXLIEGGKSSGAPPPS (Aib2, αMeF6, 4Pal10, αMeL13, Orn16, Aib20, αMeF22, D-Glu24, αMeY25; acylated K17, K31 (groups as in name); C-terminal amide) [Y-Aib-EGT-αMeF-TSD-4Pal-SI-αMeL-LD-Orn-K((2-[2-(2-Amino-ethoxy)-ethoxy]-acetyl)2-(γ-Glu)-CO-(CH2)10-CH3)AQ-Aib-E-αMeF-I-(D-Glu)-αMeY-LIEGGK((2-[2-(2-Amino-ethox …, listing 2 of 2 here] |  |  |  |  |  |  |  |  |  | > 9950 nM | 1.24 nM | 
14 | YXEGTXTSDKXIXLDXKAQXXFIXXLIEGGPSSGAPPPS (Y-Aib-EGT-αMeF(2F)-TSDK((2-[2-(2-Amino-ethoxy)-ethoxy]-acetyl)3-(γ-Glu)-CO-(CH2)10-CH3)-Aib-I-αMeL-LD-Orn-K((2-[2-(2-Amino-ethoxy)-ethoxy]-acetyl)3-(γ-Glu)-CO-(CH2)10-CH3)AQ-Aib-Orn-FI-(D-Glu)-αMeY-LIEGGPSSGAPPPS-NH2) [Example 432] | 1.28 nM | > 9950 nM | 0.0875 nM |  | 0.00602 nM |  | 0.0549 nM | 106% | > 9950 nM |  |  | 

— patent US20230265151A1, “GIP/GLP1 CO-AGONIST COMPOUNDS” (priority 2020, published 2023)
